Measured values reported in patent US5679542.
“And” between values parts separate entries of the source, which are not always exact repeats. Equal entries are not always repeated.

Assays:
[1] = target: platelet glycoprotein GPIb-IX complex (Homo sapiens (Human)) (UniProt P07359)
[2] = target: platelet glycoprotein GPIb-IX complex (Homo sapiens (Human)) (UniProt P07359); assay: inhibition of botrocetin-induced 125I-vWF binding to washed platelets (procedure of Ruggeri et al.); competitor vWF

Row | Substance | botrocetin/ristocetin-induced agglutination inhibition assay using PRP [1] | concentration that inhibited the binding of vWF to platelets [2]
1 | CC, platelet antiadhesive purified from Cerastes cerastes venom | 3 µg/mL and 2 µg/mL | –
2 | CHH-B, platelet antiadhesive (GPIb inhibitor) purified from Crotalus horridus horridus venom | – | < 200 nM
3 | purified protein from C. horridus horridus, as prepared in Example 2 (as tested in Example 6) | 2 µg/mL and 3 µg/mL | –
